Columns and labels:
Ino2pDBD WT;Ino4pDBD WT [1] = molecular target: T1, Ino2pDBD WT;Ino4pDBD WT (Saccharomyces cerevisiae (genomic DNA …, UniProt P26798;P13902 230-304;40-117, |)); test: EMSA; 20 mM Tris-HCl pH 8.0, 100 mM NaCl (buffer B); EMSA 1.5 uM DNA, 1.5-150 uM protein, 1 h on ice; ITC at 10 C, 400 uM DNA into 20 uM protein; conditions: protein: recombinant;recombinant, tags: N-terminal His6;none (with His-Ino2p), copies: 1;1
T1 sequence 1: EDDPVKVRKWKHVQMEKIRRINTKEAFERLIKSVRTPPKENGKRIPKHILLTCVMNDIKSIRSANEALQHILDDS
T1 sequence 2: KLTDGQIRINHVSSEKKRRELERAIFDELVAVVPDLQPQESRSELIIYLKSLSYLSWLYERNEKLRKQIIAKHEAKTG

Ino2pDBD WT;Ino4pMut = molecular target: T2, Ino2pDBD WT;Ino4pMut (Saccharomyces cerevisiae (genomic DNA …, UniProt P26798;P13902 230-304;40-117, |H50A;E54A;R57A;R58A)); test: ITC; 10 C; 20 mM Tris-HCl pH 8.0, 100 mM NaCl (buffer B); EMSA 1.5 uM DNA, 1.5-150 uM protein, 1 h on ice; ITC at 10 C, 400 uM DNA into 20 uM protein; conditions: protein: recombinant;recombinant; tags: N-terminal His6;none; copies: 1;1; 14 bp with 5' overhang 1 nt at each end
T2 sequence 1: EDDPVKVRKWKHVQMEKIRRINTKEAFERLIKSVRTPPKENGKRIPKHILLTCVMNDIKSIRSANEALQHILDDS
T2 sequence 2: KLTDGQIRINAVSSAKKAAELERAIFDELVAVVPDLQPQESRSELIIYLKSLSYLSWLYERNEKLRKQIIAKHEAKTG

Ino2pMut;Ino4pDBD WT = molecular target: T3, Ino2pMut;Ino4pDBD WT (Saccharomyces cerevisiae;Saccharomyces …, UniProt P26798;P13902 230-304;40-117, H241A;E245A;R249A;R273A|); test: as above; conditions: protein: recombinant;recombinant; tags: N-terminal His6;none (with His-Ino2p); copies: 1;1; 14 bp with 5' overhang 1 nt at each end
T3 sequence 1: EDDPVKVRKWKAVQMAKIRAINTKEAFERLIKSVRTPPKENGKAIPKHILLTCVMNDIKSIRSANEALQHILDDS
T3 sequence 2: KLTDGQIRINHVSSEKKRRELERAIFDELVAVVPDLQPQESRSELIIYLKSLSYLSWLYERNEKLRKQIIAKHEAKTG

Ino2pDBD WT;Ino4pDBD WT [2] = molecular target: T1, Ino2pDBD WT;Ino4pDBD WT; test: as above; conditions: protein: recombinant;recombinant; tags: N-terminal His6;none (with His-Ino2p); copies: 1;1; 14 bp with 5' overhang 1 nt at each end

B1: 19bp-FAM promoter DNA (dsDNA)
DNA 1: GAATTTTCACATGCAGATC
DNA 2: GATCTGCATGTGAAAATTC
binding result (Ino2pDBD WT;Ino4pDBD WT [1]; label: 5'-FAM on sense strand, blunt): binds

B2: Flanking mutant promoter DNA (dsDNA)
DNA 1: GAGGGTCACATGCAG
DNA 2: CTGCATGTGACCCTC
binding result (Ino2pDBD WT;Ino4pDBD WT [1]): binds

B3: 15bp-GC promoter DNA (dsDNA)
DNA 1: GATTTTCACATGCAG
DNA 2: CCTGCATGTGAAAAT
binding result (Ino2pDBD WT;Ino4pMut): no binding
binding result (Ino2pMut;Ino4pDBD WT): no binding
Kd (Ino2pDBD WT;Ino4pDBD WT [2]): 749 nM

Source: article PMC9315497, “Structural Analysis of Ino2p/Ino4p Mutual Interactions and Their Binding Interface with Promoter DNA”
